# US20240358847A1 (Merck Sharp & Dohme, published 2024)
# Substitutions are numbered along the chain they refer to.
# T1: TROP2 on BxPC-3 and MDA-MB-231-KWL cells (human, UniProt P09758 27-323)
# T1 construct: whole, on cells
# T1 sequence (looked up): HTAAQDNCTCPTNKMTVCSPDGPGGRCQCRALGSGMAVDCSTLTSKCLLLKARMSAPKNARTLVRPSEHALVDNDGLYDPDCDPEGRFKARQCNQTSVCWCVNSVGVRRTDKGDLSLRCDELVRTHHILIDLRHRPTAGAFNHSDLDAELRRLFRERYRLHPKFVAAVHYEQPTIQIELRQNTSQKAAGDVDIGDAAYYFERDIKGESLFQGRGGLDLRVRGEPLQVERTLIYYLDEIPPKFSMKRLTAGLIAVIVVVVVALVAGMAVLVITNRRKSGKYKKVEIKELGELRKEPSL
# B1: Sacituzumab (antibody, human IgG1, kappa, V domains shown)
# VH: QVQLQQSGSELKKPGASVKVSCKASGYTFTNYGMNWVKQAPGQGLKWMGWINTYTGEPTYTDDFKGRFAFSLDTSVSTAYLQISSLKADDTAVYFCARGGFGSSYWYFDVWGQGSLVTVSS
# VL: DIQLTQSPSSLSASVGDRVSITCKASQDVSIAVAWYQQKPGKAPKLLIYSASYRYTGVPDRFSGSGSGTDFTLTISSLQPEDFAVYYCQQHYITPLTFGAGTKVEIKR
# notes: also called mAb (parental)
# B2: mAb_Lm_A32P_HC (antibody, human IgG1, kappa)
# heavy: not shown
# light: DIQLTQSPSSLSASVGDRVSITCKASQDVSIPVAWYQQKPGKAPKLLIYSASYRYTGVPDRFSGSGSGTDFTLTISSLQPEDFAVYYCQQHYITPLTFGAGTKVEIKRTVAAPSVFIFPPSDEQLKSGTASVVCLLNNFYPREAKVQWKVDNALQSGNSQESVTEQDSKDSTYSLSSTLTLSKADYEKHKVYACEVTHQGLSSPVTKSFNRGEC
# B3: mAb_LC_Hm_F108Q (antibody, human IgG1, kappa)
# heavy: not shown
# light: B2 light with P32A
# B4: mAb_LC_Hm_Y107N (antibody, human IgG1, kappa)
# heavy: not shown
# light: B2 light with P32A
# B5: mAb_Lm_A32Q_HC (antibody, human IgG1, kappa)
# heavy: not shown
# light: B2 light with P32Q
# B6: mAb_LC_Hm_G33P (antibody, human IgG1, kappa)
# heavy: not shown
# light: B2 light with P32A
# B7: mAb_Lm_Y53P_HC (antibody, human IgG1, kappa)
# heavy: not shown
# light: B2 light with P32A, Y53P
# notes: built from the Sacituzumab light chain with the named substitution
# B8: mAb_LC_Hm_N31P (antibody, human IgG1, kappa)
# heavy: not shown
# light: B2 light with P32A
# B9: mAb_LC_Hm_W106A (antibody, human IgG1, kappa)
# heavy: not shown
# light: B2 light with P32A
# B10: mAb_LC_Hm_Y107I (antibody, human IgG1, kappa)
# heavy: not shown
# light: B2 light with P32A
# B11: mAb_LC_Hm_S104D (antibody, human IgG1, kappa)
# heavy: not shown
# light: B2 light with P32A
# B12: mAb_Lm_Y53R_HC (antibody, human IgG1, kappa)
# heavy: not shown
# light: B2 light with P32A, Y53R
# B13: mAb_LC_Hm_G33I (antibody, human IgG1, kappa)
# heavy: not shown
# light: B2 light with P32A
# B14: mAb_Lm_S50L_HC (antibody, human IgG1, kappa)
# heavy: not shown
# light: B2 light with P32A, S50L
# B15: mAb_LC_Hm_G33S (antibody, human IgG1, kappa)
# heavy: not shown
# light: B2 light with P32A
# B16: mAb_Lm_V29R_HC (antibody, human IgG1, kappa)
# heavy: not shown
# light: B2 light with V29R, P32A
# B17: mAb_Lm_S50T_HC (antibody, human IgG1, kappa)
# heavy: not shown
# light: B2 light with P32A, S50T
# B18: mAb_LC_Hm_Y32E (antibody, human IgG1, kappa)
# heavy: not shown
# light: B2 light with P32A
# B19: mAb_Lm_D28H_HC (antibody, human IgG1, kappa)
# heavy: not shown
# light: B2 light with D28H, P32A
# B20: mAb_LC_Hm_F101T (antibody, human IgG1, kappa)
# heavy: not shown
# light: B2 light with P32A
# B21: mAb_LC_Hm_F29G (antibody, human IgG1, kappa)
# heavy: not shown
# light: B2 light with P32A
# B22: mAb_LC_Hm_W106L (antibody, human IgG1, kappa)
# heavy: not shown
# light: B2 light with P32A
# B23: mAb_Lm_H91K_HC (antibody, human IgG1, kappa)
# heavy: not shown
# light: B2 light with P32A, H91K
# B24: mAb_Lm_H91Y_HC (antibody, human IgG1, kappa)
# heavy: not shown
# light: B2 light with P32A, H91Y
# B25: mAb_LC_Hm_Y105S (antibody, human IgG1, kappa)
# heavy: not shown
# light: B2 light with P32A
# B26: mAb_Lm_Q89V_HC (antibody, human IgG1, kappa)
# heavy: not shown
# light: B2 light with P32A, Q89V
# B27: mAb_LC_Hm_W106E (antibody, human IgG1, kappa)
# heavy: not shown
# light: B2 light with P32A
# B28: mAb_Lm_I93G_HC (antibody, human IgG1, kappa)
# heavy: not shown
# light: B2 light with P32A, I93G
# B29: mAb_LC_Hm_F101E (antibody, human IgG1, kappa)
# heavy: not shown
# light: B2 light with P32A
# B30: mAb_LC_Hm_F108S (antibody, human IgG1, kappa)
# heavy: not shown
# light: B2 light with P32A
# B31: mAb_LC_Hm_F108T (antibody, human IgG1, kappa)
# heavy: not shown
# light: B2 light with P32A
# B32: mAb_Lm_S30R_HC (antibody, human IgG1, kappa)
# heavy: not shown
# light: B2 light with S30R, P32A
# B33: mAb_Lm_Y92N_HC (antibody, human IgG1, kappa)
# heavy: not shown
# light: B2 light with P32A, Y92N
# Target: T1, TROP2 on BxPC-3 and MDA-MB-231-KWL cells
# Assay: on-cell ELISA, BxPC-3 cells (TROP2 high)
# Design: unit not given beside the values
# Description: (§1) Cells were plated in duplicate onto 96-well plates, and primary antibody was diluted in cell culture medium with a starting concentration of 30 μg/mL (200 nM) with a dilution factor of 1:5. […] Data was plotted and analyzed. EC50 ([…]) was measured along with area under the curve (AUC) for each cell line.
row,AUC (BxPC-3),Binder
1,318,B1
2,256,B2
3,324,B3
4,317,B4
5,142,B5
6,142,B6
7,304,B7
8,289,B8
9,215,B9
10,265,B10
11,285,B11
12,323,B12
13,286,B13
14,133,B14
15,281,B15
16,291,B16
17,305,B17

row,AUC (BxPC-3),Binder
1,298,B18
2,300,B19
3,314,B20
4,291,B21
5,251,B22
6,294,B23
7,184,B24
8,268,B25
9,299,B26
10,140,B27
11,305,B28
12,300,B29
13,303,B30
14,278,B31
15,216,B32
16,226,B33

# Target: T1, TROP2 on BxPC-3 and MDA-MB-231-KWL cells
# Assay: on-cell ELISA, MDA-MB-231-KWL cells (TROP2 low)
# Design: unit not given beside the values
# Description: as §1
row,AUC (MDA-MB-231-KWL),Binder
1,248,B1
2,64.3,B2
3,230,B3
4,230,B4
5,17.8,B5
6,7.7,B6
7,173,B8
8,28.7,B9
9,163,B10
10,129,B13
11,4.22,B14
12,137,B15
13,157,B17
14,193,B18
15,214,B19
16,221,B20
17,219,B21
18,60.9,B22
19,162,B23
20,16.9,B24
21,80,B25
22,201,B26
23,22.2,B27
24,220,B28
25,158,B29
26,227,B30
27,207,B31
28,47.1,B32

# Target: T1, TROP2 on BxPC-3 and MDA-MB-231-KWL cells
# Assay: on-cell ELISA, BxPC-3 vs MDA-MB-231-KWL cells
# Description: as §1
row,ΔAUC,Binder
1,70.1,B1
2,192,B2
3,94.9,B3
4,86.5,B4
5,124,B5
6,134,B6
7,134,B7
8,116,B8
9,186,B9
10,101,B10
11,178,B11
12,143,B12
13,156,B13
14,129,B14
15,144,B15
16,80.5,B16

row,ΔAUC,Binder
1,148,B17
2,104,B18
3,86.6,B19
4,93.1,B20
5,71.9,B21
6,191,B22
7,132,B23
8,188,B25
9,98.1,B26
10,117,B27
11,85.3,B28
12,142,B29
13,76.1,B30
14,71.4,B31
15,169,B32
16,181,B33
